Changes are numbered by the printed parent chain. Where two headings read alike, the source gives them in different places.
B1: rSCFV18-small subunit P114 fusion protein (other)
chain: AHHHHHHGSGDIVLTQTPSPVSAAVGGTVSINCQSSQSVYKNNRLSWYQQKPGQPPKFLIYDTSKLASGVPSRFSGSGSGTQFTLTISDLECDDAATYYCAGGYSNNIGAFGGGTEVVVKSSGGGGSGGGGGGSSRSSQSLEESRGRLVTPGGSLTLTCSVSGFSLSIYNMGWVRQAPGEGLEWIGVIGSSGNTYYASWAKGRFTISRNTNDNTVDLKITSPTTGDTATYFCARGFSSFDIWGPGTLVTVSSGGGGSGGGGSGGGGSVTGYRLFEEIL
B2: rSCFV18-RB073 fusion protein (other)
chain: B1 chain with T269E, E275D, E276R, I277K, L278S
B3: fusion protein RB073-449-1 of the small subunit peptide RB073 with human IL6 SCFV antibody 449-1 (other)
chain: VEGYRLFDRKSGGGGSGGGGSGGGGSQSALTQPSSVSKSLGQSVSITCSGSSSNVGYGNYVSWYQQVPGSAPKFLIYGATSRASGVPARFSGSRSGNTATLSISSLQAEDEADYYCASYDSSSYGVFGSGTTLTVLSSGGGGSGGGGGGSSRSSQVRLQESGPSLVKPSQTLSLTCTVSGFSLTNYPVGWVRQAPGKALEWLGGISSGGGTAYNPALKSRLSFTRDTSKNQVSLSLSSVTSEDTAVYYCTRGNGDYVLRYGADVWGRGLLVTVSSGSGHHHHHH
notes: also called small subunit fusion protein RB073-449-1
B4: fusion protein OL-453 of the large subunit with human IL6 SCFV antibody 453 (other)
chain: VFTLEDFVGDWEQTAAYNLDQVLEQGGVSSLLQNLAVSVTPIQRIVRSGENALKIDIHVIIPYEGLSADQMAQIEEVFKVVYPVDDHHFKVILPYGTLVIDGVTPNMLNYFGRPYEGIAVFDGKKITVTGTLWNGNKIIDERLITPDGSMLFRVTINSGSSGGGGSGGGGSGGQAVLTQPSSVSKSLGQSVSITCSGSNIGSSAVGWYQQLPGSGLKTIIYSTSSRPSGVPDRFSGSKSGNTATLTISSLQAEDEADYYCATGDRGNYGGVFGSGTRLTVLSSGGGGSGGGGGGSSRSSQVQLQESGPSLVKPSQTLSLTCTVSGFSLTSYGVGWVRQAPGKTPEWLGGIDRDGDMSYNPALKSRLSITRDTSKSQVSLSLRSVATEDTAVYYCARSSYDSHYYGDYYDVDVWGRGLLVTVSSGQAGHHHHHH
notes: also called large subunit fusion protein OL-453

Key:
[1] = molecular target: Large subunit-rSCFV5 fusion protein; test: cell-based or functional assay
[2] = molecular target: Large subunit-rSCFV5 fusion protein; test: cell-based or functional assay; remark: listed apart in the source
[3] = molecular target: Large subunit-rSCFV5 fusion protein; test: cell-based or functional assay; remark: listed apart in the source
[4] = molecular target: Large subunit-rSCFV5 fusion protein; test: cell-based or functional assay; remark: listed apart in the source
[5] = molecular target: Large subunit-rSCFV5 fusion protein; test: cell-based or functional assay; remark: listed apart in the source
[6] = molecular target: T1, Recombinant human IL6 protein with C-terminal six-histidine tag (human, UniProt P05231 29-212); test: homogeneous split-luciferase sandwich with OL-453, signal rises with IL6
T1 construct: also called human interleukin 6

[7] = molecular target: T1, Recombinant human IL6 protein with …; test: homogeneous split-luciferase sandwich with RB073-449-1, signal rises with IL6

| Binder | Signal-to-noise ratio [1] | Signal-to-noise ratio at 1000 pg/ml [2] | Signal-to-noise ratio [3] | Signal-to-noise ratio at 1000 pg/ml [4] | Signal-to-noise ratio at 1000 pg/ml [5] | binding result [6] | binding result [7] |
| --- | --- | --- | --- | --- | --- | --- | --- |
| B1 | 1.9 | 1.44 | 12.2 | 3.8 | 3.8 |  |  |
| B2 |  | 38.9 | 48 |  | 14.5 |  |  |
| B3 |  |  |  |  |  | binds |  |
| B4 |  |  |  |  |  |  | binds |
